The series deals with the molecule itself. Kind of series: crystal structure; two crystal structures of AtGDH1 (apo, 2.59 Å; complex with NAD+, 2.03 Å; 2OG in one subunit of the latter); one homohexamer in the asymmetric unit, space group P212121; inter-subunit contacts analysed with PISA.

The record followed here is publication PMC7326016, “Structural Studies of Glutamate Dehydrogenase (Isoform 1) From Arabidopsis thaliana, an Important Enzyme at the Branch-Point Between Carbon and Nitrogen Metabolism” (Frontiers in Plant Science, 2020).

B1: Glutamate dehydrogenase 1 from Arabidopsis thaliana (AtGDH1), homohexamer of α subunits (enzyme, A. thaliana, UniProt Q43314 1-411, looked up)
chain: MNALAATNRNFKLAARLLGLDSKLEKSLLIPFREIKVECTIPKDDGTLASFVGFRVQHDNARGPMKGGIRYHPEVDPDEVNALAQLMTWKTAVAKIPYGGAKGGIGCDPSKLSISELERLTRVFTQKIHDLIGIHTDVPAPDMGTGPQTMAWILDEYSKFHGYSPAVVTGKPIDLGGSLGRDAATGRGVMFGTEALLNEHGKTISGQRFVIQGFGNVGSWAAKLISEKGGKIVAVSDITGAIKNKDGIDIPALLKHTKEHRGVKGFDGADPIDPNSILVEDCDILVPAALGGVINRENANEIKAKFIIEAANHPTDPDADEILSKKGVVILPDIYANSGGVTVSYFEWVQNIQGFMWEEEKVNDELKTYMTRSFKDLKEMCKTHSCDLRMGAFTLGVNRVAQATILRGWGA
notes: Glutamate dehydrogenase 1 (AtGDH1, α subunit), Arabidopsis thaliana ecotype Col-0, locus At5g18170.1, UniProt Q43314; Cloned into pMCSG68; the His tag was cut off with TEV protease; also called glutamate dehydrogenase (isoform 1); source: E. coli BL21-Gold (DE3), purified (HisTrap, TEV cleavage, second HisTrap, Superdex 200 SEC)
For the protein B1, the stoichiometry N (usually the number of molecules, sites or subunits per partner or assembly) was found to be 6.
